This note sets out measurements from patent US20250197490A1, “ANTI-CORTICOTROPIN-RELEASING HORMONE ANTIBODIES AND USE IN CONGENITAL ADRENAL HYPERPLASIA” (HBM ALPHA THERAPEUTICS, INC., priority 2021, published 2025).

One assay has as its system Mrap1 KO mice. The assay is described as follows: Mrap1 KO mice constitutively high ACTH model. Type of assay: in vivo, mouse. Particulars: for plasma ACTH concentration in Mrap1 KO mice: single dose of mAb 20 mg/kg.
The target of a further assay is T1, human UCN1 (Homo sapiens, UniProt P55089).
T1 sequence (P55089 83-122 limits assumed): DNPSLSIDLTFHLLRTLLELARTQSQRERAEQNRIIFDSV
Briefly: Human UCN1 ELISA binding. The conditions noted are these: in words. The protocol:
Streptavidin (Thermo, Cat: 21125) was diluted in PBS to a concentration of 2 μg/ml. 100 μl of diluted streptavidin was added per well to ELISA microplates, and the plates were incubated overnight at 4° C. Plates were blocked with ELISA blocking solution (containing 2% w/v BSA, 0.05% (v/v) Tween-20, pH 7.4 PBS buffer) at 37° C. for 1 hour, and then incubated with 0.5 μg/mL CRH (NT biotin), 0.5 μg/mL CRH (CT biotin), 1 μg/mL human UCN1 (NT biotin), or 1 μg/mL human UCN1 (CT biotin) for 1 hour at 37° C. Plates were then washed and incubated with diluted anti-CRH antibody (Ab) at 15 μg/ml (100 nM, 10 diluted, 8 points) for 1 hour at 37° C. Subsequently, plates were washed and incubated with HRP-conjugated goat anti-human IgG (H+L) antibody (Jackson, Cat: 109-035-088) at 37° C. for 1 hour. […] 100 μL of ELISA stopping solution (Solarbio, Cat #: C1058) was added to terminate the reaction, and the optical density at 450 nm (OD450 nm) was determined by an ELISA plate reader (Molecular Devices, Spectra max 384 plus).
Streptavidin (Thermo, Cat: 21125) was diluted in PBS with a concentration of 2 μg/mL. […] 100 μL of ELISA stopping solution (Solarbio, Cat #: C1058) was then added to terminate the reaction, and the OD450 nm was determined by an ELISA plate reader (Molecular Devices, Spectra max 384 plus).
Background: An ELISA detects its analyte on a solid surface through an enzyme-linked reagent.

Assay [1] deals with wildtype female C57BL/6 mice. Briefly: Wildtype mice restraint-stress model (ACTH and corticosterone). Type of assay: in vivo, mouse. The protocol:
8-10 week old wildtype female C57BL/6 mice were obtained from Charles River Laboratories. Mrap1 KO mice were obtained from Queen Mary University of London, UK. SSR125543A, a small molecule CRHR1 antagonist, was obtained from Axon Medchem (Cat #Axon 1799). Mouse Corticosterone (55-Corms-E01) and adrenocorticotropic hormone (ACTH) ELISA kits (21-ACTHU-E01) were obtained from ALPCO, USA. All procedures were carried out in accordance with the Guide for the Care and Use of Laboratory Animals of the National Institutes of Health. Protocols were approved by Charles River Laboratories Institutional Animal Care and Use Committee (IACUC).
To determine the effect of nonpainful physical restraint upon stress responses, mice were restrained in 50 ml polypropylene ventilated tubes in which the tip was cut off with a razor blade to allow the mouse to breathe easily for 15-20 minutes. A mouse was directed to the open tube and crawled in. A piece of paper towel was put behind the mouse so that it could not back out, and the cap was screwed on. The mouse was placed back in its cage, ventral size down on the bedding. This stressor is not considered painful, as mice are confined to a limited space (in a ventilated restraint tube) but not in an unnatural physical position. The investigator was present in the room during the entire procedure. At the end of the procedure, the mouse was removed by the tail.
On day 1, each mouse was injected intraperitoneally with 20 mg/kg of anti-CRH mAbs, hIgG1 or PBS (5 mice per group). On day 2 or 3, and 14 each mouse was subjected to physical restraint-stress described above for 15 or 20 min. Immediately after restraint-stress, 200 μl of blood was collected in EDTA tubes from the submandibular vein of each mouse. Plasma was separated using a refrigerated centrifuge (4° C. at 500×g for 10 min) and snap-frozen in dry ice for subsequent ACTH and corticosterone ELISA measurement.
On day 1, one half of mice were injected IP with 20 mg/kg of anti-CRH Ab or hIgG1 (5 mice per group). […]

Where a chain is given by its changes, count along the chain named. “Also recorded” adds a separate entry of the source.

B1: PR302038: humanized variant of PR301777; VH SEQ ID NO: 256, VL SEQ ID NO: 311 (antibody, V domains shown)
VH: EMQLVESGGGLVQPGGSLRLSCAASGFTFSNYWMNWVRQAPGKGLEWVAEIRLKSNNYATHYAESVKGRFTISRDDSKSSVYLQMNSLKTEDTAVYYCTVGTLVYWGQGTLVTVSS
VL: EIVLTQSPATLSLSPGERATLSCRASQSVSTSTYNYMHWFQQKPGQAPRLLIKFASNLESGIPARFSGSGSGTDFTLTISSLEPEDTAVYYCQHSWEIPYTFGQGTKLEIK
modifications: PR302036 VH, PR302038 VH, PR302041 VH; PR302031 VL, PR302038 VL, PR302045 VL, PR302052 VL, PR302066 VL
With B1, the “plasma ACTH concentrations in Mrap1 KO mice, dose dependent” value in the assay on Mrap1 KO mice (20 mg/kg and 5 mg/kg, day 2 and day 16) is given as “reduced”.

B2: PR302334-26: Series 9 humanized variant of PR302334; VH SEQ ID NO: 277, VL SEQ ID NO: 328 (antibody, V domains shown)
VH: EVQLVESGGGLVQPGGSLRLSCAASGFTFSTYAMSWVRQAPGKGLEWVASIRSGGTTYYPDSVKGRFTISRDNSKNSLYLQMNSLRAEDTAVYYCTRGIDWGQGTTVTVSS
VL: DIVMTQSPDSLAVSLGERATINCKASQSVNNDVAWYQQKPGQPPRLLIYYASNRYTGVPDRFSGSGSGTDFTLTISSLQAEDLAVYFCQQDYSSWTFGGGTKVEIK
modifications: PR302334-18 VH, PR302334-26 VH, PR302334-27 VH; PR302334-10 VL, PR302334-24 VL, PR302334-26 VL, PR302334-4 VL
Take B2: the “binding to human UCN1 peptides in ELISA” value in the assay with human UCN1 is on record as “except for PR302334-26, bound to human UCN1 peptides”. In addition, in the assay with Mrap1 KO mice, the “plasma ACTH concentration in Mrap1 KO mice” value is “markedly reduced”.

B3: PR302334-24: humanized variant of PR302334; VH SEQ ID NO: 275, VL SEQ ID NO: 328 (antibody, V domains shown)
VH: B2 VH with Q13K, S74A
VL: B2 VL
modifications: PR302334-16 VH, PR302334-24 VH, PR302334-25 VH; PR302334-10 VL, PR302334-24 VL, PR302334-26 VL, PR302334-4 VL
For B3, the “duration of the effects of the mAb” value in assay [1] (wildtype mice restraint model) is listed as “at least 17 days”. For the same molecule, the “extent of inhibition of ACTH and corticosterone versus SSR125543A” value in assay [1] (wildtype mice restraint model, SSR125543A 30 mg/kg) is listed as “more complete inhibition”. The “efficacy versus SSR125543A in reducing plasma ACTH and corticosterone levels” value in assay [1] (wildtype mice restraint stress, mAb 20 mg/kg and 5 mg/kg, SSR125543A 30 mg/kg) is on record as “more efficacious; also recorded: superior efficacy”. For the same molecule, the “efficacy versus SSR125543A in reducing plasma ACTH levels” value with Mrap1 KO mice (Mrap1 KO mice, PR302064 20 mg/kg, PR302334-24 20, 10 and 5 mg/kg, SSR125543A 30 mg/kg) is “more efficacious; also recorded: superior efficacy”. Further, the “extent of inhibition of ACTH versus SSR125543A” value in the assay with Mrap1 KO mice (Mrap1 KO mice, SSR125543A 30 mg/kg) is listed as “more complete inhibition”. For the same molecule, the “plasma ACTH concentration in Mrap1 KO mice” value in the assay on Mrap1 KO mice is given as “significantly reduced”.
